Test results from the supplement of paper PMC9112550, “Optimization of the antimicrobial peptide Bac7 by deep mutational scanning” (BMC Biology, 2022).

The sequences below were run on Escherichia coli TOP10 (assay: shrunken log2 fold change of peptide-encoding DNA abundance (4.5 h post-induction vs induction); higher = less antimicrobial activity (less host growth inhibition)). Settings: time post-induction: 4.5 h; library: site-saturation at positions 5, 18, 19, 20.
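Also: peptides expressed intracellularly from a pBAD plasmid library in pooled LB shake-flask culture, induced with 0.3% L-arabinose, DNA abundance read by NGS, three biological replicates, DESeq2 with apeglm shrinkage.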

Q: How did the “shrunken log2 fold change” value turn out when RRIRGRPPRLPRPRPRPELDPRP was run?
A: 0.807

Q: With RRIRARPPRLPRPRPRPCWNPRP as the sequence, how does the “shrunken log2 fold change” value read?
A: -0.0387

Q: With RRIRYRPPRLPRPRPRPPLRPRP as the sequence, how does the “shrunken log2 fold change” value read?
A: -0.151

Q: RRIRMRPPRLPRPRPRPCYPPRP was tested. Which “shrunken log2 fold change” value did it give?
A: -0.352

Q: Which “shrunken log2 fold change” value does the source give for RRIRWRPPRLPRPRPRPKGIPRP here?
A: -0.0761

Q: RRIRARPPRLPRPRPRPAASPRP was tested. Which “shrunken log2 fold change” value did it give?
A: 0.928

Q: RRIRGRPPRLPRPRPRPHDPPRP was tested. Which “shrunken log2 fold change” value did it give?
A: 0.546

Q: With RRIRCRPPRLPRPRPRPLRAPRP as the sequence, how does the “shrunken log2 fold change” value read?
A: 1.02

Q: For RRIRIRPPRLPRPRPRPNQKPRP, which “shrunken log2 fold change” value is on record?
A: 0.0249

Q: With RRIRSRPPRLPRPRPRPLILPRP as the sequence, how does the “shrunken log2 fold change” value read?
A: -0.628

Q: RRIRQRPPRLPRPRPRPFTEPRP was tested. Which “shrunken log2 fold change” value did it give?
A: -0.223

Q: With RRIRQRPPRLPRPRPRPMIYPRP as the sequence, how does the “shrunken log2 fold change” value read?
A: -0.0652

Q: RRIRRRPPRLPRPRPRPQHIPRP was tested. Which “shrunken log2 fold change” value did it give?
A: -0.338

Q: With RRIRCRPPRLPRPRPRPKSCPRP as the sequence, how does the “shrunken log2 fold change” value read?
A: 0.0733

Q: RRIRSRPPRLPRPRPRPNVGPRP was tested. Which “shrunken log2 fold change” value did it give?
A: -0.0139

Q: For RRIRPRPPRLPRPRPRPVGMPRP, which “shrunken log2 fold change” value is on record?
A: -0.0812

Q: RRIRSRPPRLPRPRPRPCDLPRP was tested. Which “shrunken log2 fold change” value did it give?
A: -0.144

Q: With RRIRHRPPRLPRPRPRPHVYPRP as the sequence, how does the “shrunken log2 fold change” value read?
A: -0.939

Q: How did the “shrunken log2 fold change” value turn out when RRIRQRPPRLPRPRPRPHHNPRP was run?
A: -0.706

Q: How did the “shrunken log2 fold change” value turn out when RRIRFRPPRLPRPRPRPNQVPRP was run?
A: -1.05

Q: How did the “shrunken log2 fold change” value turn out when RRIRFRPPRLPRPRPRPRCTPRP was run?
A: 0.0551

Q: How did the “shrunken log2 fold change” value turn out when RRIRPRPPRLPRPRPRPFFGPRP was run?
A: 0.0908

Q: RRIRIRPPRLPRPRPRPVKDPRP was tested. Which “shrunken log2 fold change” value did it give?
A: -0.00153

Q: For RRIRERPPRLPRPRPRPEPTPRP, which “shrunken log2 fold change” value is on record?
A: 0.327

Q: For RRIRARPPRLPRPRPRPLPFPRP, which “shrunken log2 fold change” value is on record?
A: -0.249

Q: Which “shrunken log2 fold change” value does the source give for RRIRWRPPRLPRPRPRPWVGPRP here?
A: 0.207

Q: With RRIRKRPPRLPRPRPRPCQYPRP as the sequence, how does the “shrunken log2 fold change” value read?
A: -0.26

Q: Which “shrunken log2 fold change” value does the source give for RRIRLRPPRLPRPRPRPYAFPRP here?
A: 0.0808

Q: For RRIRNRPPRLPRPRPRPAWQPRP, which “shrunken log2 fold change” value is on record?
A: -0.0152

Q: For RRIRQRPPRLPRPRPRPCISPRP, which “shrunken log2 fold change” value is on record?
A: -0.177

Q: RRIRVRPPRLPRPRPRPLMMPRP was tested. Which “shrunken log2 fold change” value did it give?
A: -0.331

Q: RRIRTRPPRLPRPRPRPVNQPRP was tested. Which “shrunken log2 fold change” value did it give?
A: 0.0163

Q: For RRIRCRPPRLPRPRPRPYWTPRP, which “shrunken log2 fold change” value is on record?
A: -0.966

Q: For RRIRKRPPRLPRPRPRPARLPRP, which “shrunken log2 fold change” value is on record?
A: 0.434

Q: Which “shrunken log2 fold change” value does the source give for RRIRIRPPRLPRPRPRPKCWPRP here?
A: 0.139

Q: RRIRWRPPRLPRPRPRPFWDPRP was tested. Which “shrunken log2 fold change” value did it give?
A: 0.00494

Q: With RRIRDRPPRLPRPRPRPQWIPRP as the sequence, how does the “shrunken log2 fold change” value read?
A: -0.222

Q: For RRIRDRPPRLPRPRPRPFCKPRP, which “shrunken log2 fold change” value is on record?
A: -0.164

Q: Which “shrunken log2 fold change” value does the source give for RRIRLRPPRLPRPRPRPATLPRP here?
A: -0.12

Q: With RRIRYRPPRLPRPRPRPKHGPRP as the sequence, how does the “shrunken log2 fold change” value read?
A: -0.413

Q: RRIRIRPPRLPRPRPRPGNNPRP was tested. Which “shrunken log2 fold change” value did it give?
A: -0.00577

Q: Which “shrunken log2 fold change” value does the source give for RRIRVRPPRLPRPRPRPLSFPRP here?
A: -0.426

Q: With RRIRTRPPRLPRPRPRPRMCPRP as the sequence, how does the “shrunken log2 fold change” value read?
A: 0.00183

Q: With RRIRMRPPRLPRPRPRPKMWPRP as the sequence, how does the “shrunken log2 fold change” value read?
A: 0.643

Q: RRIRTRPPRLPRPRPRPCCNPRP was tested. Which “shrunken log2 fold change” value did it give?
A: -0.282

Q: For RRIRFRPPRLPRPRPRPSHVPRP, which “shrunken log2 fold change” value is on record?
A: -0.281

Q: For RRIRCRPPRLPRPRPRPMFPPRP, which “shrunken log2 fold change” value is on record?
A: -0.511

Q: RRIRNRPPRLPRPRPRPHCPPRP was tested. Which “shrunken log2 fold change” value did it give?
A: -1.27

Q: RRIRKRPPRLPRPRPRPIHTPRP was tested. Which “shrunken log2 fold change” value did it give?
A: 0.101

Q: With RRIRCRPPRLPRPRPRPNSIPRP as the sequence, how does the “shrunken log2 fold change” value read?
A: -0.314

Q: Which “shrunken log2 fold change” value does the source give for RRIRARPPRLPRPRPRPRRYPRP here?
A: 0.255

Q: With RRIRYRPPRLPRPRPRPPMTPRP as the sequence, how does the “shrunken log2 fold change” value read?
A: -0.456

Q: RRIRERPPRLPRPRPRPLKMPRP was tested. Which “shrunken log2 fold change” value did it give?
A: -0.175

Q: With RRIRFRPPRLPRPRPRPTCDPRP as the sequence, how does the “shrunken log2 fold change” value read?
A: -0.0372

Q: Which “shrunken log2 fold change” value does the source give for RRIRARPPRLPRPRPRPQVGPRP here?
A: 0.391

Q: RRIRWRPPRLPRPRPRPGMEPRP was tested. Which “shrunken log2 fold change” value did it give?
A: 0.302

Q: Which “shrunken log2 fold change” value does the source give for RRIRDRPPRLPRPRPRPFYCPRP here?
A: -0.0803

Q: For RRIRNRPPRLPRPRPRPRYFPRP, which “shrunken log2 fold change” value is on record?
A: -0.342

Q: With RRIRPRPPRLPRPRPRPLCDPRP as the sequence, how does the “shrunken log2 fold change” value read?
A: -0.312

Q: With RRIRSRPPRLPRPRPRPIWHPRP as the sequence, how does the “shrunken log2 fold change” value read?
A: -0.271

Q: Which “shrunken log2 fold change” value does the source give for RRIRARPPRLPRPRPRPQYIPRP here?
A: -0.566

Q: RRIRVRPPRLPRPRPRPARNPRP was tested. Which “shrunken log2 fold change” value did it give?
A: 0.414

Q: RRIRPRPPRLPRPRPRPCGGPRP was tested. Which “shrunken log2 fold change” value did it give?
A: 0.224

Q: Which “shrunken log2 fold change” value does the source give for RRIRERPPRLPRPRPRPRENPRP here?
A: -0.362

Q: For RRIRMRPPRLPRPRPRPWLLPRP, which “shrunken log2 fold change” value is on record?
A: -0.0297

Q: For RRIRLRPPRLPRPRPRPIQGPRP, which “shrunken log2 fold change” value is on record?
A: -0.226

Q: RRIRIRPPRLPRPRPRPLLWPRP was tested. Which “shrunken log2 fold change” value did it give?
A: 0.0456

Q: RRIRGRPPRLPRPRPRPRWEPRP was tested. Which “shrunken log2 fold change” value did it give?
A: 0.946

Q: For RRIRRRPPRLPRPRPRPKQQPRP, which “shrunken log2 fold change” value is on record?
A: 0.0775

Q: How did the “shrunken log2 fold change” value turn out when RRIRERPPRLPRPRPRPKEKPRP was run?
A: 0.121

Q: With RRIRVRPPRLPRPRPRPPRIPRP as the sequence, how does the “shrunken log2 fold change” value read?
A: 0.116

Q: How did the “shrunken log2 fold change” value turn out when RRIRGRPPRLPRPRPRPHHFPRP was run?
A: -0.0789

Q: For RRIRDRPPRLPRPRPRPLYGPRP, which “shrunken log2 fold change” value is on record?
A: -0.105

Q: For RRIRVRPPRLPRPRPRPDYRPRP, which “shrunken log2 fold change” value is on record?
A: -0.00433

Q: For RRIRDRPPRLPRPRPRPRKLPRP, which “shrunken log2 fold change” value is on record?
A: 0.0892

Q: RRIRVRPPRLPRPRPRPGENPRP was tested. Which “shrunken log2 fold change” value did it give?
A: -0.0226

Q: RRIRLRPPRLPRPRPRPDFEPRP was tested. Which “shrunken log2 fold change” value did it give?
A: -0.0246

Q: Which “shrunken log2 fold change” value does the source give for RRIRIRPPRLPRPRPRPSGTPRP here?
A: -0.0278

Q: With RRIRVRPPRLPRPRPRPWYKPRP as the sequence, how does the “shrunken log2 fold change” value read?
A: -0.252

Q: For RRIRGRPPRLPRPRPRPQLDPRP, which “shrunken log2 fold change” value is on record?
A: 0.646

Q: With RRIRDRPPRLPRPRPRPTYYPRP as the sequence, how does the “shrunken log2 fold change” value read?
A: -0.204

Q: Which “shrunken log2 fold change” value does the source give for RRIRNRPPRLPRPRPRPHQCPRP here?
A: -0.0318

Q: RRIRNRPPRLPRPRPRPYTSPRP was tested. Which “shrunken log2 fold change” value did it give?
A: -0.325

Q: How did the “shrunken log2 fold change” value turn out when RRIRVRPPRLPRPRPRPFCRPRP was run?
A: -0.215

Q: How did the “shrunken log2 fold change” value turn out when RRIRGRPPRLPRPRPRPFWIPRP was run?
A: -0.432

Q: Which “shrunken log2 fold change” value does the source give for RRIRQRPPRLPRPRPRPRYIPRP here?
A: -0.706

Q: RRIRHRPPRLPRPRPRPLYSPRP was tested. Which “shrunken log2 fold change” value did it give?
A: -0.792

Q: How did the “shrunken log2 fold change” value turn out when RRIRFRPPRLPRPRPRPQHNPRP was run?
A: -0.781

Q: With RRIRMRPPRLPRPRPRPADRPRP as the sequence, how does the “shrunken log2 fold change” value read?
A: 0.707

Q: How did the “shrunken log2 fold change” value turn out when RRIRQRPPRLPRPRPRPRDRPRP was run?
A: 0.399

Q: How did the “shrunken log2 fold change” value turn out when RRIRSRPPRLPRPRPRPWHYPRP was run?
A: -0.162

Q: With RRIRIRPPRLPRPRPRPDCRPRP as the sequence, how does the “shrunken log2 fold change” value read?
A: -0.015

Q: With RRIRERPPRLPRPRPRPVYEPRP as the sequence, how does the “shrunken log2 fold change” value read?
A: -0.445

Q: With RRIRNRPPRLPRPRPRPMCTPRP as the sequence, how does the “shrunken log2 fold change” value read?
A: -0.124

Q: For RRIRQRPPRLPRPRPRPAPCPRP, which “shrunken log2 fold change” value is on record?
A: 0.222

Q: With RRIRRRPPRLPRPRPRPDDWPRP as the sequence, how does the “shrunken log2 fold change” value read?
A: 0.359

Q: With RRIRLRPPRLPRPRPRPHYGPRP as the sequence, how does the “shrunken log2 fold change” value read?
A: -0.232

Q: For RRIRARPPRLPRPRPRPNAKPRP, which “shrunken log2 fold change” value is on record?
A: 0.262

Q: Which “shrunken log2 fold change” value does the source give for RRIRERPPRLPRPRPRPEQMPRP here?
A: -6.54e-05

Q: Which “shrunken log2 fold change” value does the source give for RRIRIRPPRLPRPRPRPEVTPRP here?
A: -0.0113

Q: RRIRMRPPRLPRPRPRPAADPRP was tested. Which “shrunken log2 fold change” value did it give?
A: 2.81

Q: For RRIRWRPPRLPRPRPRPKHKPRP, which “shrunken log2 fold change” value is on record?
A: 0.0536

Q: Which “shrunken log2 fold change” value does the source give for RRIRHRPPRLPRPRPRPNANPRP here?
A: -0.801

Q: For RRIRQRPPRLPRPRPRPTMRPRP, which “shrunken log2 fold change” value is on record?
A: 0.86

Q: With RRIRNRPPRLPRPRPRPFRPPRP as the sequence, how does the “shrunken log2 fold change” value read?
A: -0.215

Q: With RRIRERPPRLPRPRPRPLQAPRP as the sequence, how does the “shrunken log2 fold change” value read?
A: 0.167

Q: For RRIRDRPPRLPRPRPRPFSEPRP, which “shrunken log2 fold change” value is on record?
A: -0.0447

Q: With RRIRARPPRLPRPRPRPDWVPRP as the sequence, how does the “shrunken log2 fold change” value read?
A: 0.517

Q: With RRIRPRPPRLPRPRPRPTAHPRP as the sequence, how does the “shrunken log2 fold change” value read?
A: 0.231
